# Assay results taken from US20130130379A1 (published 2013).
# Residue numbers refer to the chain shown, from its start.
# B1: PMPLG26-F2 (VHH)
# VHH: EVQLVESGGGLVQAGGSLRLSCVASGFSFDDYAIGWFRQAPGQDREPLACITSGGTRNYNPSVMARFRIDRDNSVKTVYLQINTLKPEDTAVYYCSTELDRQGGSAHECREYDTWGQGTQVTVSS
# B2: LGPMP6_B7 (VHH)
# VHH: EVQLVESGGGLVQAGGSLRLSCAASGRTLRNYDMGWFRQAPGKEREFVATIRWSTSETYYADSVKGRFTISSDNAKNTVDLQMNSLTPGDTGVYYCAARSVYSYDYNYWGQGTQVTVSS
# B3: LGPMP5_G11 (VHH)
# VHH: B2 VHH with E6K, R30S, S56G, A61T, S72K, A75T, G89E, G92A, A98S, D105E
# B4: PMPLG22-A3 (VHH)
# VHH: EVQLVESGGGLVQAGGSLRLSCAASGNIFANNIMGWYRQPPGKEREFVAHVSHDGDSMYAVSVKGRFAISRKDATNLYLQMNSLKPEDTAIYFCRLLNIPTQGRMEGFWGQGTQVTVSS
# B5: LGPMP6_H4 (VHH)
# VHH: EVQLVESGGGLVQAGGSLRLACAASGSIFSFNAMGWYRQAPGKQRELLAVITRDGITKYADSVKGRFTISRDNAKNTMYLQMNSLKPEDTAVYYCHTGLPTGRGSHSDYWGQGTQVTVSS
# B6: 08A10 (VHH)
# VHH: EVQLVESGGGLVQAGGSLRLSCAASGSIFSIAAMGWYRQATGKQRELVATITDGGTTTYADSVKGRVTISRDRSANTVYLAMNNLKPDDTAVYYCYAYLRYTSRVPGDNYWGQGTQVTVSS
# notes: Group 2 anti-CXCR7 Nanobody; also called Nanobody 08A10
# B7: PMPLG26-A6 (VHH)
# VHH: EVQLVESGGGLVQAGGSLRLSCAASRSRSSFDDMGWYRQAPGKQREFVGGITLGGSTIYADSVKGRFTISMDSARNTGYLQMNSLKPEDTAVYYCNAALDGYSGSSWGQGTQVTVSS
# B8: 238D4-20GS-238D4 (VHH)
# chain: EVQLMESGGGLVQAGGSLRLSCAASGRTFNNYAMGWFRRAPGKEREFVAAITRSGVRSGVSAIYGDSVKDRFTISRDNAKNTLYLQMNSLKPEDTAVYTCAASAIGSGALRRFEYDYSGQGTQVTVSSGGGGSGGGGSGGGGSGGGGSEVQLMESGGGLVQAGGSLRLSCAASGRTFNNYAMGWFRRAPGKEREFVAAITRSGVRSGVSAIYGDSVKDRFTISRDNAKNTLYLQMNSLKPEDTAVYTCAASAIGSGALRRFEYDYSGQGTQVTVSS
# notes: also called L13
# B9: 08A05 (VHH)
# VHH: EVQLVESGGGLVQAGDSLRLSCAASGLTFSNYDMGWFRQAPGKEREFVGASWWSGGAPYYSDSVKGRFTISRDNAKNTVYLQANSLRPEDTAVYYCAAKRLRSFASGGSYDYWGQGTQVTVSS
# notes: Group 2 anti-CXCR7 Nanobody; also called Nanobody 08A05
# B10: 01C10 (VHH)
# VHH: EVQLVESGGGLVQTGASLRLSCAASGRTFSNYAMGWFRQAPGKERERVAAITPRAFTTYYADSVKGRFTISRDNAKNTAYLQMVSLKPEDTAVYYCAAQLVGSGSNLGRQESYAYWGQGTQVTVSS
# notes: Group 1 anti-CXCR7 Nanobody; also called Nanobody 01C10
# B11: PMPLG23-A3 (VHH)
# VHH: EVQLVESGGGLVQAGGSLRLSCAASGLTFSNYAMGWFRQAPGKEREWVASINWSGGSTYYEDSVEGRFTISRDNAKNTVNLQMNSLKPEDTAVYYCAAKRGHYSREYDYWGQGTQVTVSS
# What was measured:
# [1] = molecular target: parathyroid hormone receptor (PTHR1); experiment: Biacore (SPR); PTHR + CaCl2; the table names no quantity; upper end of the range
# [2] = molecular target: parathyroid hormone receptor (PTHR1); experiment: Biacore (SPR); PTHR + CaCl2; the table names no quantity; lower end of the range
# [3] = molecular target: parathyroid hormone receptor (PTHR1); experiment: Biacore (SPR); PTHR - CaCl2; the table names no quantity; lower end of the range
# [4] = molecular target: parathyroid hormone receptor (PTHR1); experiment: Biacore (SPR); PTHR - CaCl2; the table names no quantity; upper end of the range
# Human CXCR4 [5] = molecular target: T1, Human CXCR4 (human, UniProt P61073-2 2-356); experiment: membrane binding experiments, displacement of 125I-CXCL12
# T1 construct: also called hCXCR4
# [6] = molecular target: parathyroid hormone receptor (PTHR1); experiment: Biacore (SPR); PTHR + CaCl2; the table names no quantity
# [7] = molecular target: parathyroid hormone receptor (PTHR1); experiment: Biacore (SPR); PTHR Fos12; the table names no quantity
# [8] = molecular target: Cannabinoid Receptor 1 (CB1R); experiment: Biacore (SPR); the table names no quantity, heading 'Binding of clones against CB1R'
# [9] = molecular target: parathyroid hormone receptor (PTHR1); experiment: Biacore (SPR); PTHR - CaCl2; the table names no quantity
# Human CXCR7 = molecular target: T2, Human CXCR7 (human, UniProt P25106 1-362); experiment: phage ELISA and FACS
# T2 construct: also called hCXCR7
# Human CXCR4 [10] = molecular target: T1, Human CXCR4; experiment: displacement of [125I]-CXCL12, membranes from HEK293T cells transiently expressing CXCR4; n=4
# Sequence of parathyroid hormone receptor (PTHR1) (Q03431 27-593): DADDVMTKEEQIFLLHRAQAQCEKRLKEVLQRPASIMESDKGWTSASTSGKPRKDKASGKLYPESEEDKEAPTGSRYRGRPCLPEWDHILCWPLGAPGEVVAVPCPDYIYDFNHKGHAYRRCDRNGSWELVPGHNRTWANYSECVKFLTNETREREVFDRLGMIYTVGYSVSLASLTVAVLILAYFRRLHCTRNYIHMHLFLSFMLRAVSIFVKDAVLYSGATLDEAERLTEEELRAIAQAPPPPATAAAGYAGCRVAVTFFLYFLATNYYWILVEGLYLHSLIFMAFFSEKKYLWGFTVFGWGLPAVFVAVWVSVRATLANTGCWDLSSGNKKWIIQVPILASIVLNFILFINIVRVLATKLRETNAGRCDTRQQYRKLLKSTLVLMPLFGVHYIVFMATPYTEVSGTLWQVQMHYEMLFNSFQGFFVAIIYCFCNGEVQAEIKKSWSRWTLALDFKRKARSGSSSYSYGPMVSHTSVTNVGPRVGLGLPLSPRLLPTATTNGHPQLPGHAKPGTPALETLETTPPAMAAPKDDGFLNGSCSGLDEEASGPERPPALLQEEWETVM
# T2 sequence (P25106 whole entry): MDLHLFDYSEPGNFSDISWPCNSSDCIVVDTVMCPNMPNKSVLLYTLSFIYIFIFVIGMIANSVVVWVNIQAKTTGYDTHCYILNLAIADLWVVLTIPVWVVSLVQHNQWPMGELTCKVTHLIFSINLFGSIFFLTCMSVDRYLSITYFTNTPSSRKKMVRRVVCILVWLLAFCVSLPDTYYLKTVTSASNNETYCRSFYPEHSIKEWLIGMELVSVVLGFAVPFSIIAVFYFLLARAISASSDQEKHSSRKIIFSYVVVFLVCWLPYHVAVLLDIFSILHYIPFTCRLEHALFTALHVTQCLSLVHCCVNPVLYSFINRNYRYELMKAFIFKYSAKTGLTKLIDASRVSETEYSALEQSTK
# Sequence of Cannabinoid Receptor 1 (CB1R) (P47746 whole entry): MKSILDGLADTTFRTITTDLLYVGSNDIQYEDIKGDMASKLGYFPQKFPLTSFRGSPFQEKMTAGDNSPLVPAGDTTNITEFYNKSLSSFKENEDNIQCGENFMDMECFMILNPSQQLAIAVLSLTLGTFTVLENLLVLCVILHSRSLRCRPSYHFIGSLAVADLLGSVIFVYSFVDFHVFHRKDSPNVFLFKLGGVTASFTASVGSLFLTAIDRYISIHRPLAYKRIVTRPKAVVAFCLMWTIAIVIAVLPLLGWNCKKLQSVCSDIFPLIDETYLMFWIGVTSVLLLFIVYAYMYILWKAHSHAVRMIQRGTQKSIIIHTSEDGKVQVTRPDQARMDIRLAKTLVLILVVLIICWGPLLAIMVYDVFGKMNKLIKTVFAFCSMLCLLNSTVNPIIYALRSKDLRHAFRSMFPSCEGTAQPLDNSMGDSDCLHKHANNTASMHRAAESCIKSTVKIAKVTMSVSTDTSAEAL
# T1 sequence (P61073 other isoform, or with tags, fused parts or gaps): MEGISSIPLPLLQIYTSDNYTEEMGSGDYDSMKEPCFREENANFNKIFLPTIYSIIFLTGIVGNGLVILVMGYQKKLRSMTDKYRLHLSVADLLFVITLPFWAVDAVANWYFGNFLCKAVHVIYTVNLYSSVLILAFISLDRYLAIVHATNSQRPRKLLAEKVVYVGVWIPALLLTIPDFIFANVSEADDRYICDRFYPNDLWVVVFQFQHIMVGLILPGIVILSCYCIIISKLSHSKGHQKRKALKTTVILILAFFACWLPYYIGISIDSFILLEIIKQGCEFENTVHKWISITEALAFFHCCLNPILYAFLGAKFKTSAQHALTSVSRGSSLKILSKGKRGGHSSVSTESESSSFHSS
molecule,measurement,setting,value
PTH (1-34) (ligand) (from UniProt P01270 32-65) (peptide),Kd,[1],0.2 to 16 nM
same,Kd,[2],0.2 to 16 nM
same,Kd,[3],4 to 23 nM
same,Kd,[4],4 to 23 nM
mAb 12G5 (antibody),displacement of radiolabeled 125I-CXCL12,Human CXCR4 [5],50%
B1,Kd,[6],70 nM
same,Kd,[7],360 nM
B2,Kd,[8],12 nM
B3,Kd,[8],12 nM
B4,Kd,[6],9 nM
same,Kd,[9],17 nM
B5,Kd,[8],36 nM
B6,binding result,Human CXCR7,binds
B7,Kd,[9],17 nM
B8,Ki,Human CXCR4 [10],1 nM
B9,binding result,Human CXCR7,binds
B10,binding result,Human CXCR7,binds
B11,Kd,[9],22 nM
